Measured values from patent US20260069656A1, “Nutritive Polypeptides and Formulations Thereof, and Methods of Production and Use Thereof” (Axcella Health Inc., priority 2013, published 2026).
Each block holds one molecule with its values, some of them ahead of it.

Experiments:
[1] = system: kinase activity of SEQID-00338 (AMP + ATP→2ADP); assay: Kinase activity of SEQID-00338 and mutants, ADP-Glo Max Assay; assay type: biochemical; details: 7 μg/mL, 30 minute reaction at 30° C.; N=2
Procedure: Determination of the kinase activity of SEQID-00338. The ADP-Glo™ Max Assay was obtained from Promega (Catalog number V7001, Madison, WI). Adenosine Monophosphate was obtained from Sigma-Aldrich (Catalog number A1752, St. Louis, MO). 5× Kinase Buffer was prepared w/1.211 g Tris Base (Catalog number BP152-2, Fisher Bioreagents, Pittsburgh, PA), 692 μL 12% hydrochloric acid solution (Catalog number BDH3026-500MLP, VWR, Radnor, PA), 10.0 mL 500 mM magnesium chloride (Catalog number BP214-500, Fisher Bioreagents, Pittsburgh, PA) and the volume brought to 50 mL with MilliQ water and filtered through 0.22 μm PES filter (Catalog number SCGP00525, Millipore, Billerica, MA) into a sterile 50 mL tube.
Twelve his-tag purified mutant proteins and the wild-type protein at 35 μg/mL in Tris buffer were serially diluted to 7.0 and 1.4 μg/mL. Prepared kinase reaction mix at 0.5 mM AMP/0.5 mM ATP to test for activity and at 0 mM AMP/0 mM ATP to assay background activity by diluting 5× Kinase Buffer with appropriate volumes of 10 mM AMP and 10 mM ATP in MilliQ water. Duplicate reactions were prepared by mixing 9 μL of the reaction mixture with 6 μL of diluted SEQID-00338, mixing by pipetting up and down and dispensing 5 μL into a 384-well white OptiPlate (PerkinElmer, Waltham, MA). An ADP standard curve was prepared by serially diluting 4 mM ADP in MilliQ water and adding kinase buffer to 1× for a standard at 0.0005, 0.001, 0.005, 0.01, 0.05, 0.1, 1.5, 1, 2, 3, and 4 mM ADP. The plate was covered with a foil plate seal and incubated at 30° C. for 30 min. Following the kinase reaction, 5 μL of ADP-Glo™ Reagent was added to each well. The plate was sealed with a foil plate seal and placed on a horizontal plate shaker at 450 rpm for 2 minutes at room temperature. The plate was removed from the plate shaker and incubated at room temperature for 40 minutes. The plate was then centrifuged for 15 seconds at 1109× rcf and 10 μL of ADP-Glo™ Max Detection Reagent was added. The plate was sealed with a foil plate seal and shaken on a horizontal plate shaker at 450 rpm at room temperature for 2 minutes. The plate was then removed from the plate shaker and incubated at room temperature for 60 minutes. The plate was centrifuged for 15 seconds at 1109× rcf and the luminescence read on an EnspireAlpha plate reader (PerkinElmer, Waltham, MA).
The ADP standard curve was used to determine the concentration of ADP in sample wells in the presence or absence of substrate. Concentrations were determined by performing a non-linear 4 parameter logistic on the X=log(X) transformed ADP standard luminescence values. […] Where the background concentration of ADP in the absence of substrate was calculable the average of those values were subtracted from the calculated ADP concentration in the substrate incubated wells. Activity knock out was calculated by percentage activity relative to purified wild-type protein at the same concentration.

[2] = Solubility of proteins (lyophilized/reconstituted or ultrafiltered); details: produced in E. coli unless otherwise noted
Procedure: Solubility. […] Protein samples were dried by lyophilization on a FreeZone Freeze Dry System (Labconco) using the manufacturer's standard protocol and then resuspended in buffer to the desired concentration. Centrifugal and tangential ultrafiltration were used to selectively remove buffer from the protein sample until the desired concentration was reached. Centrifugal ultrafiltration of protein solutions was performed by centrifugation (10,000×g) of 10 mg of protein in an Amicon centrifugal filter (Millipore) with a molecular weight cutoff of 3 kDa, 10 kDa, or 30 kDa, depending on the protein size, until the desired contrentration was reached. Ultrafiltration of protein solutions was performed on Hydrosart ultrafiltration cassettes (Sartorius Stedim, Bohemia, NY) with a molecular weight cutoff of 3 kDa, 10 kDa, or 30 kDa, depending on the protein size, at a cross flow rate of 12 L/m2/min. For most processes, transmembrane pressure was maintained at 20 psi and performed until the desired contrentration was reached.
The protein concentration of the above samples was measured by one or a combination of the following methods: Coomassie Plus Protein Assay, absorbance at 280 nm (A280), and total amino acid analysis. Coomassie Plus Protein Assays (Pierce) were performed according to the manufacturer's protocol. Absorbance at 280 nm was measured on a Nanodrop 2000 UV-Vis spectrophotometer. Protein concentration was determined using the A280 value and molar extinction coefficient, which was calculated by primary amino acid sequence using ProtParam (Gasteiger, Elisabeth, et al. The proteomics protocols handbook. Humana Press, 2005. 571-607.). Total amino acids were analyzed by HPLC after acid hydrolysis as described in Henderson, J. W., et al. Agilent Technologies (2010).

[3] = Thermostability, ProteoStat Thermal Shift Stability Kit, temperature of aggregation; assay type: physicochemical; details: pH 7.1; heated from 25° C. to 95° C.
Procedure: Thermostability. The thermostability of proteins in a buffer cocktail of Citric Acid and Dibasic Sodium Phosphate over a pH range of 2.8 to 7.1 (preparation described above in Table E31B) was determined using the ProteoStat® Thermal Shift Stability Kit (Enzo Life Sciences) according to the manufacturer's standard protocol. Briefly, protein solutions (˜10 mg/ml) containing 1× ProteoStat TS Detection Reagent were heated from 25° C. to 95° C. at a rate of 0.5° C. per 30 sec using a real-time PCR (rtPCR) thermocycler (BioRad) equipped with a plate reader (SynergyMx, Biotek) while monitoring the fluorescence with a Texas Red filter.

[4] = Intact half-life during simulated gastric fluid (SGF) digestion; details: SGF pH 1.5, pepsin:polypeptide 1:20 w/w, 37° C.; produced in E. coli unless otherwise noted
Procedure: Nutritive polypeptide half-life during simulated digestion. One metric for quantifying the breakdown of polypeptides from an intact form to smaller peptides is the intact half-life. In this experiment the nutritive polypeptide was exposed to a series of proteases that are active in the stomach (pepsin) and intestine (trypsin and chymotrypsin), and the presence of intact protein was measured over time. Specifically, the nutritive polypeptide was first treated at a concentration of 2 g/L with simulated gastric fluid (SGF) (0.03 M NaCl, titrated with HCl to pH 1.5 with a final pepsin: polypeptide ratio of 1:20 w/w) at 37° C. Time points were sampled from the reaction and quenched by addition of 0.2 M Na2CO3. […] Time points were sampled from the reaction and quenched by addition of Trypsin/Chymotrypsin Inhibitor (Sigma) solution until 240 min.
Time point samples were analyzed for intact protein by chip electrophoresis, polyacrylamide gel electrophoresis, or western blot. For chip electrophoresis (Labchip GX II), samples were analyzed using a HT Low MW Protein Express LabChip® Kit (following the manufacturer's protocol). A protein ladder was loaded every 12 samples for molecular weight determination (kDa) and quantification. For polyacrylamide gel electrophoresis, samples (1 μg) were separated on a NuPAGE® Novex® Bis-Tris Precast gel (Life Technologies) according to the manufacturer's protocol. The gel was stained using SimplyBlue™ SafeStain (Invitrogen) and imaged using a Chemidoc XRS+ (BioRad) or transferred onto nitrocellulose membranes using the iBlot® Dry Blotting System (Life Technologies) and iBlot® Western Detection Kit (Life Technologies) according to the manufacturer's protocol. Proteins were detected by blotting with Anti-His [C-term]-HRP antibody diluted 3:5000 in Blok™-PO Blocking Buffer using the SNAP i.d.® Protein Detection System (Millipore) according to the manufacturer's protocol. Blots were treated with Luminata Classico Western HRP Substrate (Millipore) according to the manufacturer's protocol and imaged using chemiluminescent detection on the Molecular Imager® Gel Doc™ XR+ System (Bio-Rad). Quantification of intact protein was determined by densitometry using ImageLab (BioRad). For all analysis methods the relative concentration of the polypeptide at each time point (if detected) was plotted overtime and fit to an exponential curve to calculate the intact half-life.
Specifically, the t=0 (enzyme-free control) and t=2 min samples from the SGF digest were analyzed for intact protein as described by chip electrophoresis, SDS-PAGE, western blot, and/or LC-MS/MS. Relative quantities of polypeptides at each time point were determined and the percentage of intact protein remaining at t=2 was determined.

[5] = pH solubility screen in Citric Acid / Dibasic Sodium Phosphate buffers; assay type: physicochemical
Procedure: pH Solubility. […] Protein was either lyophilized and then resuspended in buffer cocktail mixtures, or concentrated and then spiked into buffer cocktail mixtures at a final protein concentration of 5 to 30 mg/ml. As a control, protein was also dissolved in a solution of 8 M urea. Protein solutions were shaken for 10 min at room temperature. Turbidity of proteins was determined by measuring the absorbance of protein solutions at 650 nm. The protein solution was then centrifuged for 10 min at 1100×g to pellet undissolved or precipitated protein. The soluble protein fraction (supernatant) was sampled and protein concentration was measured by one or more of the following methods: Coomassie Plus Protein Assay (Pierce), Chip electrophoresis, gel electrophoresis, and/or absorbance at 280 nm. The pH range over which select proteins remained greater than 80% soluble as determined by Bradford and the A650 value are listed in Table E31C.

B5: R42G: single amino acid mutant of SEQID-00338 at substrate binding position 42 (protein, listed as Saccharomyces cerevisiae)
chain: MSSSESIRMVLIGPPGAGKGTQAPNLQERFHAAHLATGDMLGSQIAKGTQLGLEAKKIMDQGGLVSDDIMVNMIKDELTNNPACKNGFILDGFPRTIPQAEKLDQMLKEQGTPLEKAIELKVDDELLVARITGRLIHPASGRSYHKIFNPPKEDMKDDVTGEALVQRSDDNADALKKRLAAYHAQTEPIVDFYKKTGIWAGVDASQPPATVWADILNKLGKD
modifications: strain ATCC 204508 / S288c
AVG proportion activity, percentage AMP + ATP→2ADP converted relative to wild-type [1]: 1.2%

B6: R42C: single amino acid mutant of SEQID-00338 at substrate binding position 42 (protein, listed as Saccharomyces cerevisiae)
chain: MSSSESIRMVLIGPPGAGKGTQAPNLQERFHAAHLATGDMLCSQIAKGTQLGLEAKKIMDQGGLVSDDIMVNMIKDELTNNPACKNGFILDGFPRTIPQAEKLDQMLKEQGTPLEKAIELKVDDELLVARITGRLIHPASGRSYHKIFNPPKEDMKDDVTGEALVQRSDDNADALKKRLAAYHAQTEPIVDFYKKTGIWAGVDASQPPATVWADILNKLGKD
modifications: strain ATCC 204508 / S288c
AVG proportion activity, percentage AMP + ATP→2ADP converted relative to wild-type [1]: 1.8%

B7: R42I: single amino acid mutant of SEQID-00338 at substrate binding position 42 (protein, listed as Saccharomyces cerevisiae)
chain: MSSSESIRMVLIGPPGAGKGTQAPNLQERFHAAHLATGDMLISQIAKGTQLGLEAKKIMDQGGLVSDDIMVNMIKDELTNNPACKNGFILDGFPRTIPQAEKLDQMLKEQGTPLEKAIELKVDDELLVARITGRLIHPASGRSYHKIFNPPKEDMKDDVTGEALVQRSDDNADALKKRLAAYHAQTEPIVDFYKKTGIWAGVDASQPPATVWADILNKLGKD
modifications: strain ATCC 204508 / S288c
AVG proportion activity, percentage AMP + ATP→2ADP converted relative to wild-type [1]: 1.5%

B8: R42A: single amino acid mutant of SEQID-00338 at substrate binding position 42 (protein, listed as Saccharomyces cerevisiae)
chain: MSSSESIRMVLIGPPGAGKGTQAPNLQERFHAAHLATGDMLASQIAKGTQLGLEAKKIMDQGGLVSDDIMVNMIKDELTNNPACKNGFILDGFPRTIPQAEKLDQMLKEQGTPLEKAIELKVDDELLVARITGRLIHPASGRSYHKIFNPPKEDMKDDVTGEALVQRSDDNADALKKRLAAYHAQTEPIVDFYKKTGIWAGVDASQPPATVWADILNKLGKD
modifications: strain ATCC 204508 / S288c
AVG proportion activity, percentage AMP + ATP→2ADP converted relative to wild-type [1]: 0.9%

B9: SEQID-00102: nutritive polypeptide (protein, listed as Lactobacillus johnsonii)
chain: MTEEEIFNKIADMISERFSIDRDKITKDLNFQNDLDADSIDFVELVMDLEDTFGAEIPDDDAEKLQTVGEAVEYIKSHQN
Solubility [2]: 120 mg/mL
Tagg (pH 7.1) [3]: >95
SGF Half-life (t½) [4]: 0.6 min

B10: SEQID-00265: nutritive polypeptide (protein, listed as Bos taurus)
chain: SEGDRLRVELAEKANKLQNELDNVSTLLEEAEKKGIKFAKDAAGLESQLQDTQELLQEETRQKLNLSSRIRQLEEERSSLQEQQEEEEEARRSLEKQLQALQAQLTDTKKKVDDDLGTIENLEEAKKKLLKDVEVLSQRLEEKALAYDKLEKTKTRLQQELDDLLVDLDHQRQIVSNLEKKQKKFDQLLAEEKNISARYAEERDRAEAEAREKETKALSLARALEEALEAREEAERQNKQLRADMEDLMSSKDDVGKNVHELEKSKRALE
Solubility [2]: 95 mg/mL
pH Range where Protein is >80% detected as Soluble and A650 <1 OD: Low ([5]; lower pH of range): 5.1
pH Range where Protein is >80% detected as Soluble and A650 <1 OD: Other ([5]; other pH where soluble): 3
pH Range where Protein is >80% detected as Soluble and A650 <1 OD: High ([5]; upper pH of range): 9.1
Tagg (pH 7.1) [3]: >95
SGF Half-life (t½) [4]: 29 min

Next, values leading:

AVG proportion activity, percentage AMP + ATP→2ADP converted relative to wild-type [1]: 0.3%
B1: R134M: single amino acid mutant of SEQID-00338 at substrate binding position 134 (protein, listed as Saccharomyces cerevisiae)
chain: MSSSESIRMVLIGPPGAGKGTQAPNLQERFHAAHLATGDMLRSQIAKGTQLGLEAKKIMDQGGLVSDDIMVNMIKDELTNNPACKNGFILDGFPRTIPQAEKLDQMLKEQGTPLEKAIELKVDDELLVARITGMLIHPASGRSYHKIFNPPKEDMKDDVTGEALVQRSDDNADALKKRLAAYHAQTEPIVDFYKKTGIWAGVDASQPPATVWADILNKLGKD
modifications: strain ATCC 204508 / S288c

AVG proportion activity, percentage AMP + ATP→2ADP converted relative to wild-type [1]: 2.2%
B2: R42K: single amino acid mutant of SEQID-00338 at substrate binding position 42 (protein, listed as Saccharomyces cerevisiae)
chain: MSSSESIRMVLIGPPGAGKGTQAPNLQERFHAAHLATGDMLKSQIAKGTQLGLEAKKIMDQGGLVSDDIMVNMIKDELTNNPACKNGFILDGFPRTIPQAEKLDQMLKEQGTPLEKAIELKVDDELLVARITGRLIHPASGRSYHKIFNPPKEDMKDDVTGEALVQRSDDNADALKKRLAAYHAQTEPIVDFYKKTGIWAGVDASQPPATVWADILNKLGKD
modifications: strain ATCC 204508 / S288c

AVG proportion activity, percentage AMP + ATP→2ADP converted relative to wild-type [1]: 0.2%
B3: R134Y: single amino acid mutant of SEQID-00338 at substrate binding position 134 (protein, listed as Saccharomyces cerevisiae)
chain: MSSSESIRMVLIGPPGAGKGTQAPNLQERFHAAHLATGDMLRSQIAKGTQLGLEAKKIMDQGGLVSDDIMVNMIKDELTNNPACKNGFILDGFPRTIPQAEKLDQMLKEQGTPLEKAIELKVDDELLVARITGYLIHPASGRSYHKIFNPPKEDMKDDVTGEALVQRSDDNADALKKRLAAYHAQTEPIVDFYKKTGIWAGVDASQPPATVWADILNKLGKD
modifications: strain ATCC 204508 / S288c

AVG proportion activity, percentage AMP + ATP→2ADP converted relative to wild-type [1]: 1.7%
B4: R42L: single amino acid mutant of SEQID-00338 at substrate binding position 42 (protein, listed as Saccharomyces cerevisiae)
chain: MSSSESIRMVLIGPPGAGKGTQAPNLQERFHAAHLATGDMLLSQIAKGTQLGLEAKKIMDQGGLVSDDIMVNMIKDELTNNPACKNGFILDGFPRTIPQAEKLDQMLKEQGTPLEKAIELKVDDELLVARITGRLIHPASGRSYHKIFNPPKEDMKDDVTGEALVQRSDDNADALKKRLAAYHAQTEPIVDFYKKTGIWAGVDASQPPATVWADILNKLGKD
modifications: strain ATCC 204508 / S288c
